Data published in patent US20040081647A1.

Target: recombinant human TNFα (RDI) (human) (UniProt P01375)
Experiment: cell-based or functional assay

Chain of recombinant human TNFα (RDI) (human) (P01375 77-233 limits assumed): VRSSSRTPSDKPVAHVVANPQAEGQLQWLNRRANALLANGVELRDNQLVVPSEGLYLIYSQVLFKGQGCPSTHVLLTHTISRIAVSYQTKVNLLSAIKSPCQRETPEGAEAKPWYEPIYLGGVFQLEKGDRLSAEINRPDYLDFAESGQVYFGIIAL

B1: MMP7 (enzyme, UniProt P09237 95-267, looked up, species assumed)
Matrilysin: YSLFPNSPKWTSKVVTYRIVSYTRDLPHITVDRLVSKALNMWGKEIPLHFRKVVWGTADIMIGFARGAHGDSYPFDGPGNTLAHAFAPGTGLGGDAHFDEDERWTDGSSLGINFLYAATHELGHSLGMGHSSDPNAVMYPTYGNGDPQNFKLSQDDIKGIQKLYGKRSNSRKK
In the case of B1, the survival of L929 cells at the dilution equivalent to ˜600 pg/ml TNFα after digestion is reported as 40 % survival.
